Substitutions are numbered along the chain they refer to. Values joined by “and” are separate entries in the source; they are usually repeats but may differ in a detail not shown here. Equal values may be shown once.
T1: cDPEP3 (Macaca fascicularis, UniProt Q4R7M2)
T1 construct: extracellular domain; also called cynomolgus DPEP3-His; cynomolgus DPEP3 ECD with histidine tag
T1 sequence (single chain, looked up): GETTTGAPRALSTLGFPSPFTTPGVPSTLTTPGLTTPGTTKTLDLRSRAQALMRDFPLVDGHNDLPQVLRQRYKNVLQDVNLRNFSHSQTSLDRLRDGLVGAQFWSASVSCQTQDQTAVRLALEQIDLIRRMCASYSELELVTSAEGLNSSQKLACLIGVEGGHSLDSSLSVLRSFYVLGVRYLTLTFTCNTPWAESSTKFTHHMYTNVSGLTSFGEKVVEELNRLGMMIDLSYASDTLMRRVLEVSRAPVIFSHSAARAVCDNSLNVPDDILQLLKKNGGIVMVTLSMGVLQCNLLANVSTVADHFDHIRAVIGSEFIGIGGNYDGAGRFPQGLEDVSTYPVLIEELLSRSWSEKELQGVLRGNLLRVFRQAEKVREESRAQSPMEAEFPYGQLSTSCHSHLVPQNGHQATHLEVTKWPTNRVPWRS

T2: mDPEP3 (limits assumed)
T2 construct: also called mouse DPEP3-His; mouse DPEP3 ECD with histidine tag
T2 single chain: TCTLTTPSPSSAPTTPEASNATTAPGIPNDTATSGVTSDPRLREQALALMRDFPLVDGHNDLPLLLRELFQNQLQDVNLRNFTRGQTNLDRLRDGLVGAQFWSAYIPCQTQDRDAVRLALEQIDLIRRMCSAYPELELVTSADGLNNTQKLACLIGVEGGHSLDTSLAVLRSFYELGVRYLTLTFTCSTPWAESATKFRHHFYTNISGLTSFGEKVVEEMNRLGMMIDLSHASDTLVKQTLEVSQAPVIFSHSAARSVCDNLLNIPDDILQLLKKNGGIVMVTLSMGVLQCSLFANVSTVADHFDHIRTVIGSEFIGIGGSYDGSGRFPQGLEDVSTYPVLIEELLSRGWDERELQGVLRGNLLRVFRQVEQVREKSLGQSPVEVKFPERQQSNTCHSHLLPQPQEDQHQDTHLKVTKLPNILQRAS

T3: rat DPEP3 ECD with histidine tag (rat, UniProt Q5U2X4 36-459, limits assumed)
T3 construct: also called rDPEP3-His; ratDPEP3-His; not shown: histidine tag
T3 sequence: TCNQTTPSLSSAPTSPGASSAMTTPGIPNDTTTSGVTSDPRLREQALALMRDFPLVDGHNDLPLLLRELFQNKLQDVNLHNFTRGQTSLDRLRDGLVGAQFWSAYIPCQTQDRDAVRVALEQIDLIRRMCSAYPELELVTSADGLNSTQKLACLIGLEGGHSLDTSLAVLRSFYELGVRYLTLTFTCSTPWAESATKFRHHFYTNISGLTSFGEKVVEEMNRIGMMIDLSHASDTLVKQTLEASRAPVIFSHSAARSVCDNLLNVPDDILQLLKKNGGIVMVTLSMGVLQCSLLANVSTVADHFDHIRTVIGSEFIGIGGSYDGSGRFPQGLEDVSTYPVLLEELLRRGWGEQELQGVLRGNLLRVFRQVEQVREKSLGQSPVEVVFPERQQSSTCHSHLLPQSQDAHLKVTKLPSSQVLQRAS

T4: hDPEP1-His (human, UniProt P16444 17-385, limits assumed)
T4 construct: Neither the origin nor the limits of this protein are described; not shown: histidine tag
T4 sequence (looked up): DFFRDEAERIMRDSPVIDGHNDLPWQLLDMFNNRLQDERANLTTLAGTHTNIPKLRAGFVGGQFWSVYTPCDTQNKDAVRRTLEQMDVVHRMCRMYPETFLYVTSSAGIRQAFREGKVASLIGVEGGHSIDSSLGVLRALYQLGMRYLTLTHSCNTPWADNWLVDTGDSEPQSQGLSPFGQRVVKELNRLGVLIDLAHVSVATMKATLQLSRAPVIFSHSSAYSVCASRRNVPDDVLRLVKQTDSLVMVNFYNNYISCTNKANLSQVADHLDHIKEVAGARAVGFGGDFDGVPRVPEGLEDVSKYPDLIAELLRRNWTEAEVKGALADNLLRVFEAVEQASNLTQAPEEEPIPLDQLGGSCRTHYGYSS

T5: hDPEP3-ECD-His (human, UniProt Q9H4B8 36-463)
T5 construct: also called hDPEP3-His; monomeric hDPEP3-His antigen; not shown: histidine tag
T5 sequence: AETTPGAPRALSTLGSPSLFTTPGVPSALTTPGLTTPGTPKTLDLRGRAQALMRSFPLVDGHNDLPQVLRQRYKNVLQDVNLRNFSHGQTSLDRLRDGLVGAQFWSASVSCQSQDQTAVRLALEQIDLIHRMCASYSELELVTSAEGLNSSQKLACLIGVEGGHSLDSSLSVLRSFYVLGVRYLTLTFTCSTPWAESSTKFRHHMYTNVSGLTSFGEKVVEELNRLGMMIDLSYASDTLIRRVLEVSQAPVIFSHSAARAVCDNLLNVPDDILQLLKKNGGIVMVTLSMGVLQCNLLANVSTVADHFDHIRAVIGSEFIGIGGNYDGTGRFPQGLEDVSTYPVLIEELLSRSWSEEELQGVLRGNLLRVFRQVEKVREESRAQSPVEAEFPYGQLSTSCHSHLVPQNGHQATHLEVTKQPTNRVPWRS

B1: SC34.28 mouse anti-DPEP3 antibody (antibody, V domains shown)
VH: QVQLQQSGAELMKPGASVKISCKATGYTFSSYWIEWVKQRPGHGLEWIGEILPGSGNTYYNERFKDKATFTADTSSNTAYMQLSSLTSEDSAVYYCARRAAAYYSNPEWFAYWGQGTLVTVSA
VL: QIVLTQSPAIMSASLGERVTMTCTASSSVNSFYLHWYQQKPGSSPKLWIHSTSNLASGVPGRFSGSGSGTSYSLTISSMEAEDAATYYCHQYHRSPYTFGGGTKLEIK
notes: Mouse hybridoma antibody, the source of hSC34.28
B2: SC34.33 (antibody, mouse IgG1, V domains shown)
VH: B1 VH with G56D, N57K, A97T
VL: B1 VL
B3: SC34.49 (antibody, mouse IgG1, V domains shown)
VH: EVQLQQSGPELVKPGSSVKISCKASGYTFTDYHMNWVKQSHGKSLEWIGNINPYYGVSTYNQNLKGTATLTVDKSSSTAYMELRGLTSEDSAVYYCVRRAMDSPRFAYWGQGTLVTVSA
VL: DIQMTQSSSYLSVSLGGRVTITCKASEHINNWLAWYQQKPGNPPRLLISGATSLETGVPSRFSGSGSGKDYTLSITGLQTEDIATYFCQQYRSTPFTFGSGTKLEIK
B4: SC34.53 mouse anti-hDPEP3 antibody (antibody, V domains shown)
VH: QVQLQQPGAELVKPGASVTLSCKASGYTFTSYYIYWVKQRPGEGLEWIGEIDPSNGGPNFNDRFKNKATLTVDKSSSTAYMQLSSLTSEDSAVYYCTRGLLYYDYDRGFAYWGQGTLVTVSA
VL: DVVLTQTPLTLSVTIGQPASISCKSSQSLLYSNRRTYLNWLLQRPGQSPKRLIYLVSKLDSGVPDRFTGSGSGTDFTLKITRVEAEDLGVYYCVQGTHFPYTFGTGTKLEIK
notes: Mouse hybridoma antibody
B5: SC34.40 (antibody, mouse IgG2a, V domains shown)
VH: EVQLQESGPGLAKPSQTLSLTCSVTGYSITSDYWNWIRKFPGNKLEYMGYITYSGSTYYNPSLKSRISITRDTSKNQYYLQLNSVTTEDTATYYCARARVYYYDGRYGRAMDYWGQGTSVTVSS
VL: DIQMTQSPASLSASVGETVTMTCRASENIYSNLAWYQQKQGKSPQVLVYAATNLADGVPSRFSGSESGTQFSLKINSLQPEDFGSYYCQHFYGTPWTFGGGTKLEIK
B6: SC34.50 (antibody, mouse IgG2b, V domains shown)
VH: QVQLQQPGAELVRPGASVKLSCKASGYTFTSYWINWVKQRPGQGLEWIGNIFPSDSYTNYNQKFRDKATLTVDKSSSTAYMQLSSPTSEDSAVYYCTIRTYGNYFDYWGQGTTLTVSS
VL: DIQMTQSSSSFSVSLGDRVTITCKASEDIYNRLAWYQQKPGNAPRLLISGATSLETGVPSRFSGSGSGKDYTLSITSLQTEDVATYYCQQYWSTIFTFGSGTKLEIK
B7: SC34.41 (antibody, mouse IgG1, V domains shown)
VH: EVKLVESGGGLVKPGGSLKLSCAASGFTFTSYTMSWVRQTPAKRLEWVATISTGGGNTYYPDIVKGRFTISRDNARSTLYLQMSSLRSEDSAMYYCARRFYDGSYNYWYFDVWGAGTTVTVSS
VL: DIQMIQSPSSMFASLGDRVSLSCRASQGIRGNLDWYQQKPGGTIKLLIYSTSNLNSGVPSRFSGSGSGSDYSLTISSLESEDFADYYCLQRDAYPYTFGGGTKLEIK
B8: SC34.61 (antibody, mouse IgG1, V domains shown)
VH: B7 VH
VL: B7 VL
B9: hSC34.2 humanized anti-DPEP3 antibody (antibody, human IgG1, kappa, V domains shown)
VH: EVQLVQSGAEVKKPGESLKISCKGSGYSFTDYYINWVRQMPGKGLEWMGWTYPGSGPTKYNGKFRGQVTISADKSISTAYLQWSSLKASDTAMYYCARRGIYYYDGIYPNYFDYWGQGTTVTVSS
VL: DIQMTQSPSSLSASVGDRVTITCSASQGITNYLNWYQQKPGKAPKLLIYYTSRLHSGVPSRFSGSGSGTDFTLTISSLQPEDFATYYCQQYSKLPWTFGQGTKVEIKR
notes: Human IgG1/kappa

What follows are binders tested against T6, hDPEP2 ECD with histidine tag (human, UniProt Q9H4A9 33-463) (assay: ELISA, coated antigen).
T6 construct: also called hDPEP2-His; not shown: histidine tag
T6 sequence (Q9H4A9 33-463): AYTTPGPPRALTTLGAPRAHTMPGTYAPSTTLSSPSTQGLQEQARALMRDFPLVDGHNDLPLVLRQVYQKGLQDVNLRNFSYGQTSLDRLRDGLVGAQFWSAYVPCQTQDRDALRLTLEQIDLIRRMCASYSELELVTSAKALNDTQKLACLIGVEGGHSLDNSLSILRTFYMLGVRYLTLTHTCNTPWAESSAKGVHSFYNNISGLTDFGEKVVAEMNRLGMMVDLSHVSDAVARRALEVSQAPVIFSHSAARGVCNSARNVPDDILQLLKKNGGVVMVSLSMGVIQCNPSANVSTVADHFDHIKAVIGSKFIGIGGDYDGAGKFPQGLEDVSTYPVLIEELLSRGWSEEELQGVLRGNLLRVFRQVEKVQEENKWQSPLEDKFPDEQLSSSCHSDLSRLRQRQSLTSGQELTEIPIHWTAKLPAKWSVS

binding result | Binder
no binding (tested: 1 ug/mL) | B1
no binding (tested: 1 ug/mL) | B2
no binding (tested: 1 ug/mL) | B3
no binding (tested: 1 ug/mL) | B4
no binding (tested: 1 ug/mL) | B5
no binding (tested: 1 ug/mL) | B6
no binding (tested: 1 ug/mL) | B7
no binding (tested: 1 ug/mL) | B8

The binders below were run against T1, cDPEP3 (assay: ELISA, coated antigen).

binding result | Binder
no binding (tested: 1 ug/mL) | B1
no binding (tested: 1 ug/mL) | B2
no binding (tested: 1 ug/mL) | B3
no binding (tested: 1 ug/mL) | B4
no binding (tested: 1 ug/mL) | B5
no binding (tested: 1 ug/mL) | B6
no binding (tested: 1 ug/mL) | B7
no binding (tested: 1 ug/mL) | B8

Target: T2, mDPEP3
Assay: ELISA, coated antigen

binding result | Binder
no binding (tested: 1 ug/mL) | B1
no binding (tested: 1 ug/mL) | B2
no binding (tested: 1 ug/mL) | B3
no binding (tested: 1 ug/mL) | B4
no binding (tested: 1 ug/mL) | B5
no binding (tested: 1 ug/mL) | B6
no binding (tested: 1 ug/mL) | B7
no binding (tested: 1 ug/mL) | B8

The binders below were run against T3, rat DPEP3 ECD with histidine tag (assay: ELISA, coated antigen).

binding result | Binder
no binding (tested: 1 ug/mL) | B1
no binding (tested: 1 ug/mL) | B2
no binding (tested: 1 ug/mL) | B3
no binding (tested: 1 ug/mL) | B4
no binding (tested: 1 ug/mL) | B5
no binding (tested: 1 ug/mL) | B6
no binding (tested: 1 ug/mL) | B7
no binding (tested: 1 ug/mL) | B8

Each binder was assayed against T4, hDPEP1-His (assay: SPR, BIAcore 2000, antibody captured with anti-human capture kit).

binding result | Binder
no binding | B9

The binders below were run against T3, rat DPEP3 ECD with histidine tag in the same assay as above.

binding result | Binder
no binding | B9

Each binder was assayed against T5, hDPEP3-ECD-His (assay: BLI ForteBio RED, 200 nM hDPEP3-His, estimated grade).
Outline: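 Antibodies were captured on anti-mouse Fc biosensors to 0.3-1 units, then exposed to hDPEP3-His for a 4 min association and a 3 min dissociation at 1000 rpm. A control mouse IgG response was subtracted, and KD was estimated qualitatively from the curves. Sensors were regenerated with 10 mM glycine, pH 1.7.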

Kd | Binder
≥ 5 nM and ≤ 10 nM | B1
≥ 5 nM and ≤ 10 nM | B2
> 10 nM | B3
≥ 5 nM and ≤ 10 nM | B4
≥ 5 nM and ≤ 10 nM | B5
> 10 nM | B6
> 10 nM | B7
> 10 nM | B8
